Results published in the RNAGym collection of RNA variant scans (doi:10.1093/nar/gkz1192).

B1: CPEB3 Ribozyme (parent)
chain: UAACAGGGGGCCACAGCAGAAGCGUUCACGUCGCAGCCCCUGUCAGAUUCUGGUGAAUCUGCGAAUUCUGCUGUAUAUCUC

Variants of: B1
Assay: self-cleavage, relative activity (ratio to wild type); higher = more cleavage; in vitro, sequencing
In short: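 After error-prone PCR and barcoding, CPEB3 ribozyme mutant libraries were transcribed with T7 RNA polymerase at 37°C for 5 hours, then given 15 min with DNase I before an EDTA stop, and they cleaved during both steps. Reverse transcription with template switching preceded Illumina sequencing. Relative activity divides a variant's cleaved/total read fraction by the unmutated ribozyme's. At least 5 reads were required per variant, and three batches were averaged.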

Row | Variant | self-cleavage
1 | UAACAGGGGGCCGCAGCAGAAGCGUUCACGUCGCAGCCCCUGUCAGAUUCUGGUGAAUCUGCGAAUUCAGCUGUAUAUCUC [A13G U69A] | 0.38
2 | UAACAGGGGGCCGCAGCAGAAGCGUUCACGUCGCAGCCCCUGUCAGAUUCUGGUGAAUCUGCGAAUUCCGCUGUAUAUCUC [A13G U69C] | 0.32
3 | UAACAGGGGGCCGCAGCAGAAGCGUUCACGUCGCAGCCCCUGUCAGAUUCUGGUGAAUCUGCGAAUUCGGCUGUAUAUCUC [A13G U69G] | 0.39
4 | UAACAGGGGGCCGCAGCAGAAGCGUUCACGUCGCAGCCCCUGUCAGAUUCUGGUGAAUCUGCGAAGUCUGCUGUAUAUCUC [A13G U66G] | 0.31
5 | UAACAGGGGGCCGCAGCAGAAGCGUUCACGUCGCAGCCCCUGUCAGAUUCUGGUGAAUCUGCGAAAUCUGCUGUAUAUCUC [A13G U66A] | 0.45
6 | UAACAGGGGGCCGCAGCAGAAGCGUUCACGUCGCAGCCCCUGUCAGAUUCUGGUGAAUCUGCGAACUCUGCUGUAUAUCUC [A13G U66C] | 0.35
7 | UAACAGGGGGCCGCAGCAGAAGCGUUCACGUCGCAGCCCCUGUCAGAUUCUGGUGAAUCAGCGAAUUCUGCUGUAUAUCUC [A13G U60A] | 0.43
8 | UAACAGGGGGCCGCAGCAGAAGCGUUCACGUCGCAGCCCCUGUCAGAUUCUGGUGAAUCCGCGAAUUCUGCUGUAUAUCUC [A13G U60C] | 0.38
9 | UAACAGGGGGCCGCAGCAGAAGCGUUCACGUCGCAGCCCCUGUCAGAUUCUGGUGAAUCGGCGAAUUCUGCUGUAUAUCUC [A13G U60G] | 0.32
10 | UAACAGGGGGCCGCAGCAGAAGCGUUCACGUCGCAGCCCCUGUCAGAUUCUGGUGAAUCUGCGAAUUCUGCUGUAAAUCUC [A13G U76A] | 0.99
11 | UAACAGGGGGCCGCAGCAGAAGCGUUCACGUCGCAGCCCCUGUCAGAUUCUGGUGAAUCUGCGAAUUCUGCUGUAGAUCUC [A13G U76G] | 1.08
12 | UAACAGGGGGCCGCAGCAGAAGCGUUCACGUCGCAGCCCCUGUCAGAUUCUGGUGAAUCUGCGAAUUCUGCUGUACAUCUC [A13G U76C] | 0.94
13 | UAACAGGGGGCCGCAGCAGAAGCGUUCACGUCGCAGCCCCGGUCAGAUUCUGGUGAAUCUGCGAAUUCUGCUGUAUAUCUC [A13G U41G] | 0.37
14 | UAACAGGGGGCCGCAGCAGAAGCGUUCACGUCGCAGCCCCAGUCAGAUUCUGGUGAAUCUGCGAAUUCUGCUGUAUAUCUC [A13G U41A] | 0.27
15 | UAACAGGGGGCCGCAGCAGAAGCGUUCACGUCGCAGCCCCCGUCAGAUUCUGGUGAAUCUGCGAAUUCUGCUGUAUAUCUC [A13G U41C] | 0.79
16 | UAACAGGGGGCCUCAGCAGGAGCGUUCACGUCGCAGCCCCUGUCAGAUUCUGGUGAAUCUGCGAAUUCUGCUGUAUAUCUC [A13U A20G] | 0.93
17 | UAACAGGGGGCCUCAGCAGUAGCGUUCACGUCGCAGCCCCUGUCAGAUUCUGGUGAAUCUGCGAAUUCUGCUGUAUAUCUC [A13U A20U] | 0.54

Row | Variant | self-cleavage
18 | UAACAGGGGGCCUCAGCGGAAGCGUUCACGUCGCAGCCCCUGUCAGAUUCUGGUGAAUCUGCGAAUUCUGCUGUAUAUCUC [A13U A18G] | 0.87
19 | UAACAGGGGGCCUCAGCCGAAGCGUUCACGUCGCAGCCCCUGUCAGAUUCUGGUGAAUCUGCGAAUUCUGCUGUAUAUCUC [A13U A18C] | 0.42
20 | UAACAGGGGGCCUCAGCUGAAGCGUUCACGUCGCAGCCCCUGUCAGAUUCUGGUGAAUCUGCGAAUUCUGCUGUAUAUCUC [A13U A18U] | 0.38
21 | UAACAGGGGGCCGCAGCAGAAGCGUUCACGUCGCAGCCCCUGUCAGAUACUGGUGAAUCUGCGAAUUCUGCUGUAUAUCUC [A13G U49A] | 0.41
22 | UAACAGGGGGCCGCAGCAGAAGCGUUCACGUCGCAGCCCCUGUCAGAUCCUGGUGAAUCUGCGAAUUCUGCUGUAUAUCUC [A13G U49C] | 0.25
23 | UAACAGGGGGCCGCAGCAGAAGCGUUCACGUCGCAGCCCCUGUCAGAUUCUGGUGAAUCUGCGAAUACUGCUGUAUAUCUC [A13G U67A] | 0.43
24 | UAACAGGGGGCCGCAGCAGAAGCGUUCACGUCGCAGCCCCUGUCAGAUUCUGGUGAAUCUGCGAAUCCUGCUGUAUAUCUC [A13G U67C] | 0.25
25 | UAACAGGGGGCCGCAGCAGAAGCGUGCACGUCGCAGCCCCUGUCAGAUUCUGGUGAAUCUGCGAAUUCUGCUGUAUAUCUC [A13G U26G] | 0.21
26 | UAACAGGGGGCCGCAGCAGAAGCGUUCACGUCGCAGCCCCUGUCAGAUUCUGGUGAACCUGCGAAUUCUGCUGUAUAUCUC [A13G U58C] | 0.46
27 | UAACAGGGGGCCGCAGCAGAAGCGUUCACGUCGCAGCCCCUGUCAGAUUCUGGUGAAGCUGCGAAUUCUGCUGUAUAUCUC [A13G U58G] | 0.2
28 | UAACAGGGGGCCUCAGCAGAGGCGUUCACGUCGCAGCCCCUGUCAGAUUCUGGUGAAUCUGCGAAUUCUGCUGUAUAUCUC [A13U A21G] | 0.48
29 | UAACAGGGGGCCUCAGCAGACGCGUUCACGUCGCAGCCCCUGUCAGAUUCUGGUGAAUCUGCGAAUUCUGCUGUAUAUCUC [A13U A21C] | 0.37
30 | UAACAGGGGGCCUCAGCAGAUGCGUUCACGUCGCAGCCCCUGUCAGAUUCUGGUGAAUCUGCGAAUUCUGCUGUAUAUCUC [A13U A21U] | 0.35
31 | UAACAGGGGGCCGCAGCAGAAGCGUUCACGUCGCAGCCCCUGUCAGAUUCUGGUGAAUCUGCGAAUUCUGCUGGAUAUCUC [A13G U74G] | 1.37
32 | UAACAGGGGGCCGCAGCAGAAGCGUUCACGUCGCAGCCCCUGUCAGAUUCUGGUGAAUCUGCGAAUUCUGCUGAAUAUCUC [A13G U74A] | 1.28
33 | UAACAGGGGGCCGCAGCAGAAGCGUUCACGUCGCAGCCCCUGUCAGAUUCUGGUGAAUCUGCGAAUUCUGCUGCAUAUCUC [A13G U74C] | 0.72
34 | UAACAGGGGGCCGCAGCAGAAGCGUUCACGUCGCAGCCCCUGUCAGAUUCUGGUGAAUCUGCGAAUUCUGCUGUAUAUCAC [A13G U80A] | 1.07
